Assay results as given in publication PMC4176334.

Target: M. tuberculosis RNAP core;SigB;RbpA (Mycobacterium …, UniProt P9WGZ1;P9WGY9;P9WGY7;P9WGY5;P9WGI5;P9WHJ5 1-347;1-1178;1-1316;1-110;1-323;1-111, ||)
Assay: EMSA

B1: galP1AA (dsDNA)
DNA 1: GTTTATTCCATGTCACACTTTTCGCATCTTTTCGTTGCTATAATTATTTCATACCAAAAGCCTAATGGAGCG
DNA 2: CGCTCCATTAGGCTTTTGGTATGAAATAATTATAGCAACGAAAAGATGCGAAAAGTGTGACATGGAATAAAC
  binding result: binds
